Assay results from publication PMC5764400, “Biophysical insights from a single chain camelid antibody directed against the Disrupted-in-Schizophrenia 1 protein” (PLoS ONE, 2018).

B1: human DISC1 fragment 598-715 (domain or fragment, UniProt Q9NRI5 598-715, looked up)
chain: GNHFWTAKDLTEEIRSLTSEREGLEGLLSKLLVLSSRNVKKLGSVKEDYNRLRREVEHQETAYETSVKENTMKYMETLKNKLCSCKCPLLGKVWEADLEACRLLIQSLQLQEARGSLS
notes: same vector as m3; source: E. coli BL21 AI (pESPRIT002), purified (Ni2+-NTA, SEC)
B2: human DISC1 fragment 480-721 (domain or fragment, UniProt Q9NRI5 480-721, looked up)
chain: EAKDQQLRREIEEQEQQLQWQGCDLTPLVGQLSLGQLQEVSKALQDTLASAGQIPFHAEPPETIRSLQERIKSLNLSLKEITTKVCMSEKFCSTLRKKVNDIETQLPALLEAKMHAISGNHFWTAKDLTEEIRSLTSEREGLEGLLSKLLVLSSRNVKKLGSVKEDYNRLRREVEHQETAYETSVKENTMKYMETLKNKLCSCKCPLLGKVWEADLEACRLLIQSLQLQEARGSLSVEDERQ
notes: Disrupted-in-Schizophrenia 1 (DISC1), human, UniProtKB Q9NRI5, residues 480-721; same vector as m3; also called DISC1^480-721; source: E. coli BL21 AI (pESPRIT002), purified (Ni2+-NTA, SEC)
B3: anti-DISC1 VHH B5 antibody (VHH)
VHH: QVKLEESGGGLVQAGGSLRLSCAASGTLFSISVMGWYRQAPGMQRELVGSITDGGSTIYGDSVKGRFAISKDNAKRTIYLQMNSLKPEDTAVYYCNYRRLTSNYWGQGTQVTVSS
notes: Selected by phage display from an immunised llama; the homology model holds residues 1-120; PDB 3EZJ chain B is only the template of the homology model, not this VHH; also called clone B5; VHH domain B5; source: E. coli BL21 Rosetta (pET-22b, periplasm), purified (Ni2+-NTA, SEC)
B4: human DISC1 fragment comprising residues 691-836 (C region) (domain or fragment, UniProt Q9NRI5 691-836, looked up)
chain: WEADLEACRLLIQSLQLQEARGSLSVEDERQMDDLEGAAPPIPPRLHSEDKRKTPLKVLEEWKTHLIPSLHCAGGEQKEESYILSAELGEKCEDIGKKLLYLEDQLHTAIHSHDEDLIQSLRRELQMVKETLQAMILQLQPAKEAG
notes: also called DISC1 C region; source: E. coli BL21 AI (pESPRIT002), purified (Ni2+-NTA, SEC); not shown: His tag, N-terminal, kept
B5: full length human DISC1 (natural protein, UniProt Q9NRI5 1-854, looked up)
chain: MPGGGPQGAPAAAGGGGVSHRAGSRDCLPPAACFRRRRLARRPGYMRSSTGPGIGFLSPAVGTLFRFPGGVSGEESHHSESRARQCGLDSRGLLVRSPVSKSAAAPTVTSVRGTSAHFGIQLRGGTRLPDRLSWPCGPGSAGWQQEFAAMDSSETLDASWEAACSDGARRVRAAGSLPSAELSSNSCSPGCGPEVPPTPPGSHSAFTSSFSFIRLSLGSAGERGEAEGCPPSREAESHCQSPQEMGAKAASLDGPHEDPRCLSRPFSLLATRVSADLAQAARNSSRPERDMHSLPDMDPGSSSSLDPSLAGCGGDGSSGSGDAHSWDTLLRKWEPVLRDCLLRNRRQMEVISLRLKLQKLQEDAVENDDYDKAETLQQRLEDLEQEKISLHFQLPSRQPALSSFLGHLAAQVQAALRRGATQQASGDDTHTPLRMEPRLLEPTAQDSLHVSITRRDWLLQEKQQLQKEIEALQARMFVLEAKDQQLRREIEEQEQQLQWQGCDLTPLVGQLSLGQLQEVSKALQDTLASAGQIPFHAEPPETIRSLQERIKSLNLSLKEITTKVCMSEKFCSTLRKKVNDIETQLPALLEAKMHAISGNHFWTAKDLTEEIRSLTSEREGLEGLLSKLLVLSSRNVKKLGSVKEDYNRLRREVEHQETAYETSVKENTMKYMETLKNKLCSCKCPLLGKVWEADLEACRLLIQSLQLQEARGSLSVEDERQMDDLEGAAPPIPPRLHSEDKRKTPLKVLEEWKTHLIPSLHCAGGEQKEESYILSAELGEKCEDIGKKLLYLEDQLHTAIHSHDEDLIQSLRRELQMVKETLQAMILQLQPAKEAGEREAAASCMTAGVHEAQA
notes: Disrupted-in-Schizophrenia 1 (DISC1), human, UniProtKB Q9NRI5; source: NLF human neuroblastoma cells, transfected, in lysate

Legend:
[1] = target: T1, anti-DISC1 human Fc-VHH antibody (VHH B5 fused to human Fc) (Lama glama); experiment: far-Western, overlay or dot blot; western blot of purified His-tagged DISC1 truncation constructs probed with the VHH-Fc (conditioned medium) and an anti-human secondary antibody; conditions: one partner purified
T1 construct: as the VHH of m1; also called VHH-Fc; VHH–Fc antibody; not shown: Fc (human), C-terminal, kept

[2] = target: B4; experiment: SEC + SPR; stoichiometry of the DISC1^691-836 - VHH B5 complex as supported by the SEC and SPR results; conditions: both partners purified
[3] = target: B4; experiment: SPR; Biacore T200, 25°C, PBS/0.05% Tween-20 pH 7.4; DISC1^691-836 amine-coupled to a CM5 chip (250 RU); VHH B5 19 nM to 1.5 uM injected in a single cycle; response levels against concentration fitted with Langmuir 1:1 model; conditions: both partners purified
[4] = target: T1, anti-DISC1 human Fc-VHH antibody (VHH …); experiment: far-Western, overlay or dot blot; western blot of lysates of NLF neuroblastoma cells transfected with human DISC1 or mouse Disc1, probed with the VHH-Fc (conditioned medium); conditions: partners not purified

Row | Binder | binding result [1] | further results
1 | B1 | binds | –
2 | B2 | binds | –
3 | B3 | – | stoichiometry N [2]: 1; Kd [3]: 139 nM
4 | B4 | binds | –
5 | B5 | – | binding result [4]: binds
